Like-named read-outs stand apart in the source and are kept apart here.
T1: human sodium-dependent phosphate transporter 2B (NaPi2b) (human, UniProt O95436 1-690)
T1 sequence: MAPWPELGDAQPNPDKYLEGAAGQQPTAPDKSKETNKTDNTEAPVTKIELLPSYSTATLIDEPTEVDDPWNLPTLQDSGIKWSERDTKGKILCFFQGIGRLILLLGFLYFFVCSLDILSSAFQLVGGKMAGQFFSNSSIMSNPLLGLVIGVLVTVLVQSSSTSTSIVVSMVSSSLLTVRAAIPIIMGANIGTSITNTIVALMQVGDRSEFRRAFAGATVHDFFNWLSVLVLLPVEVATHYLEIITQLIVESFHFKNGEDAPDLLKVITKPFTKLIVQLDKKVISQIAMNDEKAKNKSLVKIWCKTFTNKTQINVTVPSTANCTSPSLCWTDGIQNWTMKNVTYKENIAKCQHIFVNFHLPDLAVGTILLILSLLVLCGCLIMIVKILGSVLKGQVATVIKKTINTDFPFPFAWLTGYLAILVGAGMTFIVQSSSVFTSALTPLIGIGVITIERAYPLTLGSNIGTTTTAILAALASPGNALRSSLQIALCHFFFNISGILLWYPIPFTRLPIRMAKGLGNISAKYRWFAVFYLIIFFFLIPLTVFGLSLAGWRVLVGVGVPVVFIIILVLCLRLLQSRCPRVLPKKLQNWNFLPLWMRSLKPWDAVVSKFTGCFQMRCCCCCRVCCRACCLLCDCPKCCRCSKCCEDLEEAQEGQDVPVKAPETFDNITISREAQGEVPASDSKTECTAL


Columns and labels:
Test in all cases: cell-based or functional assay
[1] = target: T1, human sodium-dependent phosphate …
[2] = target: T1, human sodium-dependent phosphate …; remark: listed apart in the source
[3] = target: T1, human sodium-dependent phosphate …; remark: listed apart in the source
[4] = target: T1, human sodium-dependent phosphate …; remark: listed apart in the source
[5] = target: T1, human sodium-dependent phosphate …; remark: listed apart in the source

Binder	EC50 of cytotoxicity, HCC-78 3D spheroids, 6 days, CellTiter-Glo 3D [3]	EC50 of cytotoxicity, IGROV-1 3D spheroids, 6 days, CellTiter-Glo 3D [3]	EC50 of cytotoxicity, IGROV-1 3D spheroids [4]	EC50 of cytotoxicity, TOV-21G:HDFa (1:1) 3D spheroids [4]	EC50 of cytotoxicity, 2D monolayer, IGROV-1 cells [5]	further results
v18993 (lifastuzumab)-MCvcPABC-MMAE DAR 4 (antibody, human IgG1, kappa, MCvcPABC-MMAE drug-linker; DAR 4 for the whole antibody; attachment residues not stated) heavy 1: GEVQLVESGGGLVQPGGSLRLSCAASGFSFSDFAMSWVRQAPGKGLEWVATIGRVAFHTYYPDSMKGRFTISRDNSKNTLYLQMNSLRAEDTAVYYCARHRGFDVGHFDFWGQGTLVTVSSASTKGPSVFPLAPSSKSTSGGTAALGCLVKDYFPEPVTVSWNSGALTSGVHTFPAVLQSSGLYSLSSVVTVPSSSLGTQTYICNVNHKPSNTKVDKKVEPKSCDKTHTCPPCPAPELLGGPSVFLFPPKPKDTLMISRTPEVTCVVVDVSHEDPEVKFNWYVDGVEVHNAKTKPREEQYNSTYRVVSVLTVLHQDWLNGKEYKCKVSNKALPAPIEKTISKAKGQPREPQVYVYPPSRDELTKNQVSLTCLVKGFYPSDIAVEWESNGQPENNYKTTPPVLDSDGSFALVSKLTVDKSRWQQGNVFSCSVMHEALHNHYTQKSLSLSPG heavy 2: not shown light: GDIQMTQSPSSLSASVGDRVTITCRSSETLVHSSGNTYLEWYQQKPGKAPKLLIYRVSNRFSGVPSRFSGSGSGTDFTLTISSLQPEDFATYYCFQGSFNPLTFGQGTKVEIKRTVAAPSVFIFPPSDEQLKSGTASVVCLLNNFYPREAKVQWKVDNALQSGNSQESVTEQDSKDSTYSLSSTLTLSKADYEKHKVYACEVTHQGLSSPVTKSFNRGEC	–	–	–	–	–	EC50 of cytotoxicity, H441 3D spheroids [1]: 11700 pM; EC50 of cytotoxicity, IGROV-1 3D spheroids [1]: 690 pM; EC50 of cytotoxicity, TOV-21G 3D spheroids [1]: 25500 pM
v29456-MT-GGFG-Compound 140 DAR 8 (antibody, human IgG1, kappa, MT-GGFG-Compound 140 drug-linker on reduced cysteines (maleimide); DAR 8 for the whole antibody) heavy: not shown light: DVQMTQSPSSLSASVGDRVTITCRASQDVYSYLNWYQQKPGKAVKLLIYYTSRLQSGVPSRFSGSGSGTDYTLTISSLQPEDFATYYCQQYNIFPWTFGQGTKLEIKRTVAAPSVFIFPPSDEQLKSGTASVVCLLNNFYPREAKVQWKVDNALQSGNSQESVTEQDSKDSTYSLSSTLTLSKADYEKHKVYACEVTHQGLSSPVTKSFNRGEC	190 pM	250 pM	–	–	–	EC50 of cytotoxicity, 2D monolayer, HCC-78 cells, 4 days, CellTiter-Glo [2]: 600 pM
v29456-MC-GGFG-AM-Compound 139 DAR 4 (antibody, human IgG1, kappa, MC-GGFG-AM-Compound 139 drug-linker on reduced cysteines (maleimide); target DAR 4, printed DAR 3.4, for the whole antibody) heavy: not shown light: DVQMTQSPSSLSASVGDRVTITCRASQDVYSYLNWYQQKPGKAVKLLIYYTSRLQSGVPSRFSGSGSGTDYTLTISSLQPEDFATYYCQQYNIFPWTFGQGTKLEIKRTVAAPSVFIFPPSDEQLKSGTASVVCLLNNFYPREAKVQWKVDNALQSGNSQESVTEQDSKDSTYSLSSTLTLSKADYEKHKVYACEVTHQGLSSPVTKSFNRGEC	–	–	880 pM	760 pM	5460 pM	–
v29456-MC-GGFG-Compound 141 DAR 4 (antibody, human IgG1, kappa, MC-GGFG-Compound 141 drug-linker on reduced cysteines (maleimide); target DAR 4, printed DAR 3.4, for the whole antibody) heavy: not shown light: DVQMTQSPSSLSASVGDRVTITCRASQDVYSYLNWYQQKPGKAVKLLIYYTSRLQSGVPSRFSGSGSGTDYTLTISSLQPEDFATYYCQQYNIFPWTFGQGTKLEIKRTVAAPSVFIFPPSDEQLKSGTASVVCLLNNFYPREAKVQWKVDNALQSGNSQESVTEQDSKDSTYSLSSTLTLSKADYEKHKVYACEVTHQGLSSPVTKSFNRGEC	–	–	1310 pM	990 pM	16400 pM	–
v29456-MC-GGFG-AM-DXd1 DAR 8 (antibody, human IgG1, kappa, MC-GGFG-AM-DXd1 drug-linker on reduced cysteines (maleimide); DAR 8 for the whole antibody) heavy: not shown light: DVQMTQSPSSLSASVGDRVTITCRASQDVYSYLNWYQQKPGKAVKLLIYYTSRLQSGVPSRFSGSGSGTDYTLTISSLQPEDFATYYCQQYNIFPWTFGQGTKLEIKRTVAAPSVFIFPPSDEQLKSGTASVVCLLNNFYPREAKVQWKVDNALQSGNSQESVTEQDSKDSTYSLSSTLTLSKADYEKHKVYACEVTHQGLSSPVTKSFNRGEC	600 pM	270 pM	–	–	–	EC50 of cytotoxicity, 2D monolayer, HCC-78 cells, 4 days, CellTiter-Glo (row printed as v29456-MT-GGFG-AM-DXd1) [2]: 550 pM; EC50 of cytotoxicity, 2D monolayer, IGROV-1 cells, 4 days, CellTiter-Glo (row printed as v29456-MT-GGFG-AM-DXd1) [2]: 450 pM

— patent US20250235548A1 (Zymeworks, published 2025)
